# Measured values as given in patent publication EP1127148B1.
# Biological target: TAG-72 positive bovine submaxillary mucin (BSM) (bovine)
# Test: relative affinity constant from competition RIA on BSM
substance,measurement,value
humanized monoclonal antibody CC49 (HuCC49),Ka,3.2e+08 M⁻¹
